Laboratory results taken from publication PMC10978878.

What was measured:
[1] = target: BA.4 spike, recombinant trimeric S-twin-Strep, prefusion stabilized (SARS-CoV-2) (UniProt P0DTC2); experiment: cryo-EM structure
[2] = target: BA.2.12.1 spike, recombinant trimer that retains the native sequence (SARS-CoV-2) (UniProt P0DTC2); experiment: cryo-EM structure

BA.4 spike, recombinant trimeric S-twin-Strep, prefusion stabilized (from UniProt P0DTC2 28-1147) (natural protein)
stoichiometry N (chains per oligomer) [1]: 3

BA.2.12.1 spike, recombinant trimer that retains the native sequence (from UniProt P0DTC2) (natural protein)
stoichiometry N (chains per oligomer) [2]: 3
